Experimental findings from patent publication US20130005012A1, “ENZYMATIC SYSTEM FOR MONOMER SYNTHESIS” (PHYTOGENE, INC., priority 2011, published 2013) are described below.

T1: FDC1 (Saccharomyces cerevisiae, UniProt Q03034)
T1 construct: 6xHis (N-terminal tag of vector pDEST17); made in house; host or cells: E. coli BL21(DE3)
T1 sequence (Q03034 1-503): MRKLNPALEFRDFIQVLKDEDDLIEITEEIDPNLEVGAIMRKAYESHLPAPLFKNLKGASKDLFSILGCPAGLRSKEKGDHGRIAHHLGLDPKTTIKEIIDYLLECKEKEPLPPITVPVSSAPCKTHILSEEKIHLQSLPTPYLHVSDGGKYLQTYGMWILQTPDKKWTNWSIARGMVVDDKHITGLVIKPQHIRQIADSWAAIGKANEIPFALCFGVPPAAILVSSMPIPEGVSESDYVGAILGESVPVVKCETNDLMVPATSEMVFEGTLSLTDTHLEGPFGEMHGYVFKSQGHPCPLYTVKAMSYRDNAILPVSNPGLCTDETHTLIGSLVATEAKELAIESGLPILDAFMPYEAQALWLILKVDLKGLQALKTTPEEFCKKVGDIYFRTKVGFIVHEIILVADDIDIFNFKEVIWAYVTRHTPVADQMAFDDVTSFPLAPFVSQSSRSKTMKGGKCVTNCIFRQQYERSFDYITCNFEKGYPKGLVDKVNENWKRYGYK

T2: yeast FDC (ferulic acid decarboxylase, FDC1, Saccharomyces cerevisiae) in prey vector pGADT7-Gateway (Saccharomyces cerevisiae, UniProt Q03034 1-503)
T2 construct: Yeast two-hybrid prey fusion expressed in Clontech Y2HGold cells; also called FDC (Prey vector); not shown: fusion partner encoded by yeast two-hybrid prey vector pGADT7-Gateway
T2 sequence: T1 sequence (Q03034 1-503)

B1: yeast FDC (ferulic acid decarboxylase, FDC1, Saccharomyces cerevisiae) in bait vector pGBKT7-Gateway (enzyme)
chain: T1 sequence (Q03034 1-503)
notes: Yeast two-hybrid bait fusion expressed in Clontech Y2HGold cells; also called FDC (Bait vector); not shown: fusion partner encoded by yeast two-hybrid bait vector pGBKT7-Gateway
B2: PAD1: phenylacrylic acid decarboxylase from S. cerevisiae, SEQ ID NO:10 encoded by SEQ ID NO:9 (protein, listed as Saccharomyces cerevisiae)
chain: MLLFPRRTNIAFFKTTGIFANFPLLGRTITTSPSFLTHKLSKEVTRASTSPPRPKRIVVAITGATGVALGIRLLQVLKELSVETHLVISKWGAATMKYETDWEPHDVAALATKTYSVRDVSACISSGSFQHDGMIVVPCSMKSLAAIRIGFTEDLITRAADVSIKENRKLLLVTRETPLSSIHLENMLSLCRAGVIIFPPVPAFYTRPKSLHDLLEQSVGRILDCFGIHADTFPRWEGIKSK
B3: yeast PAD1 (phenylacrylic acid decarboxylase, Saccharomyces cerevisiae) in bait vector pGBKT7-Gateway (enzyme)
chain: VAITGATGVALGIRLLQVLKELSVETHLVISKWGAATMKYETDWEPHDVAALATKTYSVRDVSACISSGSFQHDGMIVVPCSMKSLAAIRIGFTEDLITRAADVSIKENRKLLLVTRETPLSSIHLENMLSLCRAGVIIFPPVPAFYTRPKSLHDLLEQSVGRILDCFGIHADTFPRWEGIKSK
notes: Yeast two-hybrid bait fusion expressed in Clontech Y2HGold cells; also called PAD1 (Bait vector); not shown: fusion partner encoded by yeast two-hybrid bait vector pGBKT7-Gateway
B4: yeast PAD1 (phenylacrylic acid decarboxylase, Saccharomyces cerevisiae) in prey vector pGADT7-Gateway (enzyme)
chain: B3 chain
notes: Yeast two-hybrid prey fusion expressed in Clontech Y2HGold cells; also called PAD1 (Prey vector); not shown: fusion partner encoded by yeast two-hybrid prey vector pGADT7-Gateway

For one test, the target named is T1, FDC1. Kind of test: Effect of metal ions on activity of purified FDC1. Type of test: biochemical. The following applies: 10 mM metal ion, 1.4 mM tCA, pH 6.5, 5 minutes at 30° C., versus control without metal ions. As for the experimental part:
To study the effect of metal ions on FDC1 activity, we carried out reactions with various metal ions, including ZnSO4, FeCl3, MnCl2, MgSO4, CaCl2, MnSO4, and FeSO4. Reaction mixtures of 25 mM potassium phosphate buffer pH 6.5 containing 1.4 mM tCA, 5 mM DTT, 10 mM metal ion, and 0.5 mg purified FDC1 adjusted to a final volume of 1 mL were incubated for 5 minutes at 30° C. After the reaction, 1 mL of propanol was added to the reaction mixtures to solubilize styrene. The experimental control used the same conditions except the reaction mixture contained no metal ions. The experimental negative control used the same conditions except the reaction mixture contained no substrate. […] The effects of Zn^2+ and Fe^3+ on FDC1 activity were further investigated using EDTA to cancel out the effects of the metal ions. Reaction mixtures of 25 mM potassium phosphate buffer pH 6.5 containing 1.4 mM tCA, 5 mM DTT, 10 mM metal ion, 10 mM EDTA and 0.5 mg purified FDC1 were adjusted to a final volume of 1 mL, and were incubated for 5 minutes at 30° C. After the reaction, 1 mL of propanol was added to the reaction mixtures to solubilize styrene. The experimental control used the same conditions except the reaction mixture contained no metal ions or EDTA. The experimental negative control used the same conditions except the reaction mixture contained no substrate. […] Based on results presented in FIGS. 10A and 10B, enzyme activity of FDC1 can be increased by metal ions and it was not due to experimental artifact.

Test [1] deals with cinnamic acid. Kind of test: Feeding cinnamic acid to Wat11 yeast expressing the enzyme, HPLC of products. Type of test: cell-based, S. cerevisiae. Particulars: 2 mM cinnamic acid, extracted after 8 hours. The method, then:
(§1) 0.8 ml of well-suspended cultures was taken out of the culture tube and 0.4 ml of ethyl acetate was added. The mixture was votexed at the maximum speed for half an hour and centrifuged at 15,000 rpm for 10 min at room temperature.
The extracted samples were analyzed by HPLC. HPLC was performed with an Agilent 1100 Series HPLC system using a SymmetryShield C18 column (Waters, 150×3.9 mm). The mobile phase consisted of solvent A (0.1% trifluoroacetic acid) and solvent B (acetonitrile). The gradient elution procedure was as follows: 0-5 min, 0% of B; 5-35 min, a linear gradient from 0% to 90% of B; 35-38 min, 90% of B; 38-40 min, 0% of B. The flow rate was 1.0 ml/min. The injection volume was 30 μl. Peaks for substrate and products areas were monitored at 260 nm. With this method, the retention times for cinnamic acid, p-coumaric acid, ferulic acid, styrene, 4-hydroxystyrene, and 4-vinylguaiacol (4-VG) were 21.5, 17.7, 17.7, 27.8, 22.3 and 22.1 min, respectively. […]
After transformation, 100 μl of the transgenic yeast culture was spread on SD-trp medium (Clontech, Mountain View, Calif.) and incubated at 30° C. for 3 days. […] 2 mM cinnamic acid was added to 2 d-old yeast culture and the products were extracted with ethyl acetate after 8 hours and analyzed by HPLC.

For another test, the system named is p-coumaric acid. Kind of test: Feeding p-coumaric acid to Wat11 yeast expressing FDC, HPLC of products. The class given is cell-based, S. cerevisiae. The method, then: as §1
(§2) The extracted samples were analyzed by HPLC. HPLC was performed with an Agilent 1100 Series HPLC system using a SymmetryShield C18 column (Waters, 150×3.9 mm). The mobile phase consisted of solvent A (0.1% trifluoroacetic acid) and solvent B (acetonitrile). The gradient elution procedure was as follows: 0-5 min, 0% of B; 5-35 min, a linear gradient from 0% to 90% of B; 35-38 min, 90% of B; 38-40 min, 0% of B. The flow rate was 1.0 ml/min. The injection volume was 30 μl. Peaks for substrate and products areas were monitored at 260 nm. With this method, the retention times for cinnamic acid, p-coumaric acid, ferulic acid, styrene, 4-hydroxystyrene, and 4-vinylguaiacol (4-VG) were 21.5, 17.7, 17.7, 27.8, 22.3 and 22.1 min, respectively.

Test [2] concerns ferulic acid. Description: Feeding ferulic acid to Wat11 yeast expressing FDC, HPLC of products. The class given is cell-based, S. cerevisiae. As for the experimental part:
as §1, §2

Test [3] deals with cinnamic acid. Description: Feeding cinnamic acid to E. coli BL21AI expressing the enzyme, HPLC of products. The following applies: 2 mM cinnamic acid, 37° C. The class given is cell-based. As for the experimental part: as §1, §2
Plasmid pDEST17-PAD1 was transformed into E. coli strain BL21AI competent cells (Invitrogen). An overnight culture (2 ml) was inoculated into 40 ml of LB medium supplemented with 100 µg/ml ampicillin. Bacteria were grown at 37° C. in a shaker at 250 rpm for 3 h and then 0.2% (w/v) arabinose was added to the culture, followed by the addition of 2 mM of cinnamic acid. […]

Test [4] concerns ferulic acid. Description: Feeding ferulic acid to E. coli BL21AI expressing FDC, HPLC of products. The class given is cell-based. The method, then:
as §1, §2
In E. coli, pDEST17-FDC was transformed into E. coli strain BL21AI competent cells (Invitrogen). An overnight culture (2 ml) was inoculated into 40 ml of LB medium supplemented with 100 µg/ml ampicillin. […] The induced culture was further incubated at 37° C. and samples were taken at different time points for the analysis.

Test [5] has as its system cinnamic acid. Kind of test: Comparison of PAD1, FDC and OHBA1 activities in E. coli fed 1-40 mM cinnamic acid. The class given is cell-based. The method, then: Sample (0.5 ml) was taken various treatments, and extracted with 0.3 ml of ethyl acetate. The upper phase was used for the analysis of the product styrene, and the lower phase for the analysis of cinnamic acid left in the medium.

Test [6] concerns the target T2, yeast FDC (ferulic acid decarboxylase, …). Description: yeast two-hybrid, growth on SD-Trp-Leu-His plate (bait FDC, prey FDC). As for the experimental part:
(§3) We used yeast-two-hybrid system to test this hypothesis. […] Vectors pGBKT7-Gateway and pGADT7-Gateway are gifts from Dr. Brian P. Downes, Department of Biology, St Louis University (St Louis, Mo.). The resulting vectors were used to transform Clontech Y2HGold cells by one step transformation protocol as described in Example 4. 100 μl of the transformed cultures were spread on SD-Trp-Leu as well as SD-Trp-Leu-His plates and incubated at 30° C. for 3 days.

Test [7] has the same target. Description: yeast two-hybrid, growth on SD-Trp-Leu-His plate (bait PAD1, prey FDC). As for the experimental part: as §3
The target of test [8] is B1. Description: yeast two-hybrid, growth on SD-Trp-Leu-His plate (bait FDC, prey PAD1). The method, then:
as §3

In the case of `[Ca+2].[Cl-].[Cl-]` [Ca^+2, CaCl2], the “effect on FDC1 activity (styrene produced)” value (“effect on FDC1 activity” below) on FDC1 is “increased the activity of FDC1”.
As for `[Cl][Fe]([Cl])[Cl]` [Fe^+3, FeCl3], on FDC1, the “effect on FDC1 activity” value was “increased the activity of FDC1”.
For `O=S(=O)([O-])[O-].[Mg+2]` [Mg^+2, MgSO4], the “effect on FDC1 activity” value at FDC1 is on record as “increased the activity of FDC1”.
For `O=S(=O)([O-])[O-].[Zn+2]` [Zn^+2, ZnSO4], the “effect on FDC1 activity” value at FDC1 is “increased the activity of FDC1”.
Take B1: the “styrene production upon feeding of cinnamic acid” value is “production of styrene” with cinnamic acid [1] and “Production of styrene was observed” in the test on cinnamic acid [3]. Also, the “4-hydroxystyrene production upon feeding of p-coumaric acid” value with p-coumaric acid is “production of 4-hydroxystyrene”. In the test with ferulic acid [2], the “4-VG production upon feeding of ferulic acid” value is “production of 4-VG”. Further, in the test on ferulic acid [4], the “4-vinylguaiacol (4-VG) production upon feeding of ferulic acid” value is recorded as “Production of 4-vinylguaiacol (4-VG) was also observed”. Moreover, the styrene biosynthesis in the test with cinnamic acid [5] (E. coli, after feeding on cinnamic acid substrate for 2 h) was determined as 94.6 mg/L. Also, the binding result in [6] is recorded as “binds”.
Turning to B2, the “styrene production upon feeding of cinnamic acid” value in the test on cinnamic acid [1] is “no styrene can be observed”; in the test with cinnamic acid [3], “no styrene production was observed”; with cinnamic acid [5] (E. coli in LB+Amp medium, 1-10 mM cinnamic acid), “failed to produce any styrene”.
Take B3: the binding result in test [7] was “no binding”.
Take B4: the binding result in [8] is “no binding”.
